Biological target: Flag-HsPRMT5 (UniProt O14744)
Experiment: biotinylated peptide pull-down on streptavidin beads
Settings: reference: unmodified H4 peptide; sites S1

histone H4 1-20 (from UniProt P62805) H4 S1ph peptide
binding against the reference: lost

Reference: paper PMC3581573
